Holding throughout (test): time-resolved fluorescence immunoassay (TR-FIA); plate coated with monoclonal anti-PBX1; PBX1 pre-incubated with PREP1 or MEIS1 for 1 h on ice, 10 µg/mL in 1% BSA PBS, 1 h at room temperature on the plate; detected with anti-PREP1 or biotinylated anti-MEIS1/2 and Eu^3+ conjugates; normalised to the wild-type protein taken as 1
Settings in all cases: both partners purified

The target in one assay is T1, PBX1Δ43-55 (human, UniProt P40424 1-430, Δ43-55).
T1 construct: PBX1, residues 1-430, with an internal deletion; source: E. coli, purified
T1 sequence (looked up): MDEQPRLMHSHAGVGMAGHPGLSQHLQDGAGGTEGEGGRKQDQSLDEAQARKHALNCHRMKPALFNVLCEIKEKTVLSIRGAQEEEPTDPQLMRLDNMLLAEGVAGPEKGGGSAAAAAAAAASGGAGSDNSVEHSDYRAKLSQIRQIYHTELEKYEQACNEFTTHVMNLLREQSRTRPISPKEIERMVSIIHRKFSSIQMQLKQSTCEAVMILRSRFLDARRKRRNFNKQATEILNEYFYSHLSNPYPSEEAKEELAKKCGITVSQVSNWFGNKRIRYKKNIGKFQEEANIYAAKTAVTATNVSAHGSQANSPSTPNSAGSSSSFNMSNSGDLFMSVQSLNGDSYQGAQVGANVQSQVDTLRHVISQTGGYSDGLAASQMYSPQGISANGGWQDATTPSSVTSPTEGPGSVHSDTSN

In the next assay the target is T2, PBX1 Δ105-113 (human, UniProt P40424 1-430, Δ105-113).
T2 construct: PBX1, residues 1-430, with an internal deletion; source: E. coli, purified
T2 sequence (looked up): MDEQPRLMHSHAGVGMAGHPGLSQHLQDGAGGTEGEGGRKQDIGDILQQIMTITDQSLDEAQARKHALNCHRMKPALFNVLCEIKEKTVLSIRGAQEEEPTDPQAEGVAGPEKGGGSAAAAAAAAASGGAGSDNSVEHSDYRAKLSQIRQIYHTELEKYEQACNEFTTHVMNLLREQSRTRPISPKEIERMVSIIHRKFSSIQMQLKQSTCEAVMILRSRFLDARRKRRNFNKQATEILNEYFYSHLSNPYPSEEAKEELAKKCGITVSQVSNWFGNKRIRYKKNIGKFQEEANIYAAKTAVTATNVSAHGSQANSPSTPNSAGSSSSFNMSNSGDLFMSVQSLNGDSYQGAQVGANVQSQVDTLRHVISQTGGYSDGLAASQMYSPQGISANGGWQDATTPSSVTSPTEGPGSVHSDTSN

The target of another assay is T3, PREP1 L67A (UniProt P55347 1-436, L67A).
T3 construct: PREP1 (PKNOX1), residues 1-436
T3 sequence (looked up): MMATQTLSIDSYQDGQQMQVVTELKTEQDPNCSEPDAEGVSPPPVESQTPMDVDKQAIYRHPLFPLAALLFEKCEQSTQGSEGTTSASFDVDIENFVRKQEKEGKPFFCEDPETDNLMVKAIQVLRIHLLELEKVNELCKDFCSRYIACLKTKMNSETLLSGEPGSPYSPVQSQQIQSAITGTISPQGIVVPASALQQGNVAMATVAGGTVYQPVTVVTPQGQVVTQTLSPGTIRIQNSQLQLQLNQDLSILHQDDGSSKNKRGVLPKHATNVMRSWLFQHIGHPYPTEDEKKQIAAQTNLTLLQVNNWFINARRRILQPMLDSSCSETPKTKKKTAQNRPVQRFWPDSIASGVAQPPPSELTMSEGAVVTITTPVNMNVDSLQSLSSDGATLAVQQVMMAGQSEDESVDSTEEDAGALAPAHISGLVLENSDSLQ

The next assay has as its target T4, PREP1 L69A (UniProt P55347 1-436, L69A).
T4 construct: PREP1 (PKNOX1), residues 1-436
T4 sequence (looked up): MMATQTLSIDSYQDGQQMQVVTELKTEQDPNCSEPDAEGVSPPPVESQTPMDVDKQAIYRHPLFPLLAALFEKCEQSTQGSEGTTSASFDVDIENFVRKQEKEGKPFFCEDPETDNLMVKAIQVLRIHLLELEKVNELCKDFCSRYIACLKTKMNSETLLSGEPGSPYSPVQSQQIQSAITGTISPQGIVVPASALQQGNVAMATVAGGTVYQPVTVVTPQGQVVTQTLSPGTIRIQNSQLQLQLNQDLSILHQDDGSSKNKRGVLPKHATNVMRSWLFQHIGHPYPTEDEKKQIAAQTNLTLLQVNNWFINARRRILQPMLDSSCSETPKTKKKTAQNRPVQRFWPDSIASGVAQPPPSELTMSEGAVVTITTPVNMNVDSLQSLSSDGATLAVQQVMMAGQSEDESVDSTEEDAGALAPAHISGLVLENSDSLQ

The source of these data is article PMC7545097, “Mapping the native interaction surfaces of PREP1 with PBX1 by cross-linking mass-spectrometry and mutagenesis” (Scientific Reports, 2020).

B1: PREP1_(1-436), wild-type recombinant (TR-FIA) (natural protein, UniProt P55347 1-436, looked up)
chain: MMATQTLSIDSYQDGQQMQVVTELKTEQDPNCSEPDAEGVSPPPVESQTPMDVDKQAIYRHPLFPLLALLFEKCEQSTQGSEGTTSASFDVDIENFVRKQEKEGKPFFCEDPETDNLMVKAIQVLRIHLLELEKVNELCKDFCSRYIACLKTKMNSETLLSGEPGSPYSPVQSQQIQSAITGTISPQGIVVPASALQQGNVAMATVAGGTVYQPVTVVTPQGQVVTQTLSPGTIRIQNSQLQLQLNQDLSILHQDDGSSKNKRGVLPKHATNVMRSWLFQHIGHPYPTEDEKKQIAAQTNLTLLQVNNWFINARRRILQPMLDSSCSETPKTKKKTAQNRPVQRFWPDSIASGVAQPPPSELTMSEGAVVTITTPVNMNVDSLQSLSSDGATLAVQQVMMAGQSEDESVDSTEEDAGALAPAHISGLVLENSDSLQ
notes: also called wild-type PREP1; PKNOX1; source: E. coli, purified
As to B1, the “binding relative to wild type” value with PBX1Δ43-55 turned out to be 80%; with PBX1 Δ105-113 it was 75%.

B2: PBX1_(1-430), wild-type recombinant (natural protein, human, UniProt P40424 1-430, looked up)
chain: MDEQPRLMHSHAGVGMAGHPGLSQHLQDGAGGTEGEGGRKQDIGDILQQIMTITDQSLDEAQARKHALNCHRMKPALFNVLCEIKEKTVLSIRGAQEEEPTDPQLMRLDNMLLAEGVAGPEKGGGSAAAAAAAAASGGAGSDNSVEHSDYRAKLSQIRQIYHTELEKYEQACNEFTTHVMNLLREQSRTRPISPKEIERMVSIIHRKFSSIQMQLKQSTCEAVMILRSRFLDARRKRRNFNKQATEILNEYFYSHLSNPYPSEEAKEELAKKCGITVSQVSNWFGNKRIRYKKNIGKFQEEANIYAAKTAVTATNVSAHGSQANSPSTPNSAGSSSSFNMSNSGDLFMSVQSLNGDSYQGAQVGANVQSQVDTLRHVISQTGGYSDGLAASQMYSPQGISANGGWQDATTPSSVTSPTEGPGSVHSDTSN
notes: also called wild-type PBX1; purified recombinant human PBX1; source: E. coli, purified
B2: the binding result with PREP1 L67A and with PREP1 L69A was “binds” throughout.
